Assay [1] addresses T1, Fzd4 CRD (human, UniProt Q9ULV1 40-161, limits assumed, biotinylated).
T1 construct: domain: CRD; also called Fz4; frizzled 4 cysteine rich domain
T1 sequence (looked up): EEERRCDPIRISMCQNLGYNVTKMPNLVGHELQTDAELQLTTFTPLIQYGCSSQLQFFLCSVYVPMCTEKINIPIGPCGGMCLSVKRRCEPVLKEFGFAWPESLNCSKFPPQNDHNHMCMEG
The assay can be described thus: yeast surface display of DFB, titration with biotinylated Fzd CRD, flow cytometry. An excerpt: (§1) To understand the affinity of individual DFBs towards different Fzd CRDs, two different methods were used to measure the specificity and affinity. DFBs were expressed on yeast surface and the yeast stained with biotinylated Fzd CRDs. The cells were washed and Streptavidin, Alexa Fluor™ 647 conjugates were used to stain the yeasts. The fluorescence signals were read on flow cytometry.
A general note: Flow cytometry measures light scatter and fluorescence of single cells or particles in a stream.

Assay [2] deals with T2, Fzd1 CRD (human, UniProt Q9UP38 111-230). The experiment in a line: yeast surface display of 4AF30, staining with biotinylated Fzd CRD and streptavidin-Alexa Fluor 647, flow cytometry.
Source text: as §1

The target in assay [3] is T3, Fzd5 CRD (human, UniProt Q13467 28-150, limits assumed, biotinylated).
T3 construct: domain: CRD; Species 'human' comes from the specificity statements; also called Fz5; frizzled 5 cysteine rich domain
T3 sequence (looked up): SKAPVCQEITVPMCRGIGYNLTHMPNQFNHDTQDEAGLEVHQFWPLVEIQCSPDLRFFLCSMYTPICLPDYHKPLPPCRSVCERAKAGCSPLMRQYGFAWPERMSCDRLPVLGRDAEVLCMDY
The description is as above.
Source text: as §1

Assay [4] deals with T4, Fzd2 CRD (human, UniProt Q14332 34-153). Described as above.
Source text: as §1

Assay [5] concerns the target T1, Fzd4 CRD. The experiment in a line: SPR, biotinylated Fzd CRD captured on SA chip, DFB as analyte. As for the experimental part: (§2) Second, individual DFB proteins were purified and surface Plasmon Resonance (SPR) used to measure the affinity between Fzd CRD with the DFB. The biotinylated Fzd CRD was captured on SA sensor chip at low density. A gradient concentration of DFB analyte was flown over the chip. The data was analyzed by BIACore accompanying software.

The target of assay [6] is T5, Fzd8 CRD (human, UniProt Q9H461 30-151, limits assumed, biotinylated).
T5 construct: domain: CRD; Species 'human' comes from the specificity statements; also called Fz8; frizzled 8 cysteine rich domain
T5 sequence (looked up): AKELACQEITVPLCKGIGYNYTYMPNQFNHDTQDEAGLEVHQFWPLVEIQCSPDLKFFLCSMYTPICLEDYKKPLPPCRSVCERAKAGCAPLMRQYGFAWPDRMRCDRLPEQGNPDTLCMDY
Described as above. As for the experimental part:
as §2

Assay [7] has as its target T2, Fzd1 CRD. The assay can be described thus: yeast surface display of DFB, titration with biotinylated Fzd CRD, flow cytometry; yeast titration, Fz1.
Source text: as §1

Assay [8] has as its target T6, Fzd7 CRD (human, UniProt O75084 44-163). The assay can be described thus: SPR: biotinylated Fzd7 CRD captured on an SA chip, 1AF34 as analyte, 63 nM down to 0.24 nM. As for the experimental part:
as §2
Background: In SPR one partner is held on a chip, and binding of the other changes the refractive index at the surface.

Assay [9] addresses T6, Fzd7 CRD. The assay can be described thus: SPR, biotinylated Fzd CRD captured on SA chip, DFB as analyte; SPR, Fzd7. As for the experimental part:
as §2

The target in assay [10] is T4, Fzd2 CRD. The assay can be described thus: yeast surface display of DFB, titration with biotinylated Fzd CRD, flow cytometry; yeast titration, Fz2.
Source text: as §1

For assay [11], the target named is T5, Fzd8 CRD. The experiment in a line: SPR, biotinylated Fzd CRD captured on SA chip, DFB as analyte; SPR, Fzd8. As for the experimental part:
as §2

Assay [12] deals with T6, Fzd7 CRD. The assay can be described thus: yeast surface display of DFB, titration with biotinylated Fzd CRD, flow cytometry; yeast titration, Fz7.
Source text: as §1

The target in assay [13] is T3, Fzd5 CRD. The experiment in a line: yeast surface display titration with biotinylated Fzd CRD, flow cytometry.
Assay [14] has as its target T5, Fzd8 CRD. The experiment in a line: SPR: biotinylated Fzd8 CRD captured on an SA chip, 1AF34F7 as analyte, 1 uM down to 0.24 nM. As for the experimental part: as §2
Assay [15] deals with T6, Fzd7 CRD. The assay can be described thus: SPR, biotinylated Fzd CRD captured on SA chip, DFB as analyte. As for the experimental part: as §2
For assay [16], the target named is T3, Fzd5 CRD. The assay can be described thus: yeast surface display of DFB, titration with biotinylated Fzd CRD, flow cytometry.
Source text: as §1

Assay [17] has as its target T5, Fzd8 CRD. Described as above.
Source text: as §1

Assay [18] concerns the target T2, Fzd1 CRD. The experiment in a line: yeast surface display of ANK12, staining with biotinylated Fzd CRD and streptavidin-Alexa Fluor 647, flow cytometry.
Source text: as §1

The target of assay [19] is T6, Fzd7 CRD. The description is as above.
Source text: as §1

For assay [20], the target named is T1, Fzd4 CRD. The description is as above.
Source text: as §1

For assay [21], the target named is T4, Fzd2 CRD. Described as above.
Source text: as §1

What is called EC50 is the concentration giving half of the maximal effect. Read a low EC50 as higher potency in that assay. The term Kd denotes the concentration at which binding is half-saturated. Low readings indicate higher affinity, high ones lower affinity.

B1: 4AF30 (designed binder)
chain: SELGKRLIRAALDGNKDRVKDLIENGADVNASLMSGTTPLYAAAMNGHKEVVKLLISKGADVNAQSVAGSTPLVAAANFGHNEVVKLLISKGADVNAVTAFGVTPLHAAAADGHKEVVKLLISKGADVNAKAGRGMTPLHIAAFRGHKEVVKLLISKGADLNTSAKDGATPLDMARESGNEEVVKLLEKQLE
notes: Engineered ankyrin-repeat protein; Display fusion and tags are not described; also called DFB
Turning to B1, the 50% effective concentration (EC50) in the assay with Fzd4 CRD [1] worked out at 1.6 nM. Further, the binding result with Fzd1 CRD [2], with Fzd5 CRD [3] and with Fzd2 CRD [4] was “no binding (tested: 1000 nM)” each time. The Kd came out at 1.4 nM with Fzd4 CRD [5] and 400 nM with Fzd8 CRD [6].

B2: 1AF34 (designed binder)
chain: SELGTRLIRAALDGNKDRVKDLIENGADVNASLMSGATPLHAAAMNGHKEVVKLLISKGADVNAQSVAGSTPLDAAAFSGHKEVVKLLISKGADVNAVNAAGLTPLHAAADNGHKEVVKLLISKGADVNAKADHGMTPLHFAAQRGHKEVVKLLISKGADLNTSAKDGATPLDMARESGNEEVVKLLEKQLE
notes: as for B1
Take B2: the results for the EC50 with Fzd1 CRD [7], in the assay with Fzd2 CRD [10] and with Fzd7 CRD [12] were 19 nM, 31.6 nM and 5.6 nM, respectively. Also, the Kd with Fzd7 CRD [8] turned out to be 1.3 nM; with Fzd7 CRD [9], 1 nM; in the assay with Fzd8 CRD [11], 23 nM.

B3: 1AF34F7 (designed binder)
chain: SELGTRLIRAALDGNKDRVKDLIENGADVNASLMSGATPLHAAAMNGHKEVVKLLISKGADVNAQSVAGSTPLDAAAFSGHKEVVKLLISKGADVNAVNAAGLTPLHDAADDGHNEVVKLLISKGADVNAKADHGMTPLHFAAQRGHKEVVKLLISKGADLNTSAKDGATPLDMARESGNEEVVKLLEKQLE
notes: as for B1
Turning to B3, the binding result in the assay with Fzd5 CRD [13] was “no binding (tested: 1 µM)”. Further, the EC50 was 7.5 nM in the assay with Fzd1 CRD [7], 9.9 nM in the assay with Fzd2 CRD [10] and 1.8 nM in the assay with Fzd7 CRD [12]. The dissociation constant Kd with Fzd8 CRD [14] amounted to 2600 nM; with Fzd7 CRD [15] it was 1.6 nM.

B4: ANK12 (designed binder)
chain: SELGKRLIMAALDGNKDRVKDLIENGADVNASLVSGATPLHAAAMNGHKEVVKLLISKGADVNAQSAAGSTPLAAAAINGHKEVVKLLISKGADVNAVTAAGMTPLHAAAANGHKEVVKLLISKGADVNAKADRGMTPLHFAAWRGHKEVVKLLISKGADLNTSAKDGATPLDMARESGNEEVVKLLEKQLE
notes: as for B1
Consider B4, for which the EC50 with Fzd5 CRD [16] was 4.4 nM; with Fzd8 CRD [17] it was 3.6 nM. The binding result in the assay with Fzd1 CRD [18], with Fzd7 CRD [19], with Fzd4 CRD [20] and with Fzd2 CRD [21] was “no binding (tested: 1000 nM)” each time. In the assay with Fzd8 CRD [6], this molecule yielded a Kd of 0.2 nM.
